Binding result and Kd data for five molecules are collected here from US20230059181A1 (EPSILOGEN, published 2023).

In assay [1] the target is T1, HMW-MAA (high molecular weight-melanoma associated antigen) on A375 cells (UniProt Q6UVK1 30-2322).
T1 construct: whole, on cells; also called CSPG4; chondroitin sulfate proteoglycan 4
Briefly: flow cytometry on A375 cells, FITC goat anti-human IgG secondary.
Method: (§1) A375 cells were cultured using standard methods. When A375 cells were confluent, the cells were harvested. In brief, cells were washed with PBS before incubation with TrypLE™ at 37° C. for 10 minutes to detach the cells from the flask. Cells were resuspended in 10 mL of media and centrifuged for 3 minutes at 250 g. Cells were then resuspended in 1 mL FACS buffer and counted on the Cellometer® to determine the cell number and viability. Following this, cells were diluted to 1×10⁶ cells per mL with FACS buffer, and 100 μL of this cell suspension plated per well on a plate.
(§2) Binding of purified IGEGs to A375 cells (ATCC, Virginia, US) was assessed by flow cytometry using a Attune® NxT Acoustic Focusing Cytometer running Attune Software V3.1.2 (ThermoFisher Scientific, Loughborough, UK). […] Cells were washed and resuspended in FACS buffer and then acquired on the Attune® NxT Acoustic Focusing Cytometer. The data was analysed using FlowJo™ Software Version 10 (Becton, Dickinson and Company, New Jersey, US) and GraphPad Prism 8 (GraphPad Software, California, US).

Assay [2] has as its target T2, Human FcεRIα (Fc epsilon RI alpha), His-tagged (human, UniProt P12319 26-205).
T2 construct: also called FceRIa; hFcεR1
T2 sequence (looked up): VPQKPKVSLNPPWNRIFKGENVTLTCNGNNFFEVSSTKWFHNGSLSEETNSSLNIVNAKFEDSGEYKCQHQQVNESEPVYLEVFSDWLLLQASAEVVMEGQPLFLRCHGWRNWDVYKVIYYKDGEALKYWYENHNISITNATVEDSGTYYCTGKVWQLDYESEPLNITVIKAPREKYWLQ
Nature of the assay: SPR single cycle, 1:1 fit, His-tagged receptor captured, antibody as analyte.
From the text: (§3) FcRs were captured on a CM5 sensor chip pre-coupled using a His capture kit (Cytiva, Uppsala, Sweden) using standard amine chemistry.
(§4) At the start of each cycle His-tagged Fc receptors diluted in HEPES buffered saline containing 0.05% v/v Surfactant P20 (HBS-P+) were loaded to a specified RU level (Table 7). A five point, three-fold dilution range of test antibody without regeneration between each concentration was used for each receptor tested. […] In all cases, antibodies were passed over the chip in increasing concentrations followed by a single dissociation step. Following dissociation, the chip was regenerated with two injections of Glycine pH 1.5. The signal from the reference channel Fc1 (blank) was subtracted from that of the Fc loaded with receptor to correct for differences in non-specific binding to the reference surface.

The target of assay [3] is T3, Human CD64 (FcγRI), His-tagged (human, UniProt P12314 16-288).
T3 construct: also called FcgRI; hFcγRI
T3 sequence (P12314 16-288 limits assumed): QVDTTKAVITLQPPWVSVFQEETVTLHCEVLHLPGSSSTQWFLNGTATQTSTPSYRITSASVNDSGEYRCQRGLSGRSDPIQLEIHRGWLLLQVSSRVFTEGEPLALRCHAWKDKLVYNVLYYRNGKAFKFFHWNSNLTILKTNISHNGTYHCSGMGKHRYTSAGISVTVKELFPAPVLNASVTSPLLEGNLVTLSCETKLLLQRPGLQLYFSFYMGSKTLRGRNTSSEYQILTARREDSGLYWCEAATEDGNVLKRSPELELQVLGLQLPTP
Described as above.
From the text: as §3, §4

The target of assay [4] is T4, Human FcRn (neonatal Fc receptor) (human, UniProt P55899 24-297; P61769 21-119).
T4 construct: also called hFcRn
T4 sequence (P55899 24-297 limits assumed, chain 1 of 2): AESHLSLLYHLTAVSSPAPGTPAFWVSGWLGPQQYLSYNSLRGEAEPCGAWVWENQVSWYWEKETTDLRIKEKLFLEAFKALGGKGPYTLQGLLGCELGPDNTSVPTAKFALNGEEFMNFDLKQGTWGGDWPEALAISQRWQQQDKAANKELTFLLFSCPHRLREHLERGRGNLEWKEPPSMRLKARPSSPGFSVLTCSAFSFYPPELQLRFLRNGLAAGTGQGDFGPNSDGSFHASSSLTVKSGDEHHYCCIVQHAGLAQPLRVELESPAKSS
T4 sequence (P61769 21-119 limits assumed, chain 2 of 2): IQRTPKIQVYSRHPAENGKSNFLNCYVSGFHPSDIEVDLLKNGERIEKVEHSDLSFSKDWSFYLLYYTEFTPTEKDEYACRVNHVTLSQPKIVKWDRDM
Briefly: SPR steady state, pH 6.0, FcRn amine-coupled, antibody as analyte; pH 6.0; 31.25 nM to 2000 nM antibody over hFcRn on the chip.
Method: (§5) Antibodies were passed over the chip with increasing concentrations at a flow rate of 30 μl/min and at 25° C. The injection time was 40 s per concentration and the dissociation time was 75 s. […] Interactions were analysed using a steady state model (see FIGS. 19a to 19d for example data).

Assay [5] deals with T5, Human CD16A 176 Val (FcγRIIIA176Val), His-tagged (human, UniProt P08637 17-208).
T5 construct: also called FcγRIIIA (CD16A); hFcγRIIIa 176V
T5 sequence (P08637 17-208 F176V limits assumed): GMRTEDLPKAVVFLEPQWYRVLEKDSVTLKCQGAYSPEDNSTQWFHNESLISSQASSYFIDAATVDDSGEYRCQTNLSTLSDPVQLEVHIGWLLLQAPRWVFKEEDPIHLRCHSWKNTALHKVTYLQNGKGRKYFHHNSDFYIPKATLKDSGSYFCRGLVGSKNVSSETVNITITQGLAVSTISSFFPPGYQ
Briefly: SPR single cycle, steady state fit, His-tagged receptor captured, antibody as analyte.
From the text: as §3, §4

In assay [6] the target is T6, Human CD16A 176 Phe (FcγRIIIA176Phe), His-tagged (human, UniProt P08637 17-208).
T6 construct: also called hFcγRIIIa 176F
T6 sequence (P08637 17-208 limits assumed): as the sequence (P08637 17-208 F176V limits assumed) above, with V160F counted along it
Described as above.
From the text: as §3, §4

The target of assay [7] is T7, Human CD16B (FcγRIIIB), His-tagged (human, UniProt O75015 17-200).
T7 construct: also called hFcγRIIIb
T7 sequence (O75015 17-200 limits assumed): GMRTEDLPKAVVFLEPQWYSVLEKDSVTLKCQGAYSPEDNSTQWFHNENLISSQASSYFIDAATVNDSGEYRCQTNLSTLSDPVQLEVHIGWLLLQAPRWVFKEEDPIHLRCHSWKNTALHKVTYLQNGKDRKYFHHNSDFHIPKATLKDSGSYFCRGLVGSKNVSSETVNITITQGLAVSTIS
The description is as above.
From the text: as §3, §4

The target in assay [8] is T3, Human CD64 (FcγRI), His-tagged. Nature of the assay: SPR (Biacore T200) single cycle kinetics, His-tagged FcγRI captured on anti-His chip, antibody as analyte 0.411-33.33 nM. In general terms: In SPR one partner is held on a chip, and binding of the other changes the refractive index at the surface.
From the text: as §3, §4
The target of assay [9] is T6, Human CD16A 176 Phe (FcγRIIIA176Phe), …. Briefly: SPR single cycle, His-tagged receptor captured, antibody as analyte.
From the text: as §3, §4
Assay [10] has as its target T7, Human CD16B (FcγRIIIB), His-tagged. The description is as above.
From the text: as §3, §4
Assay [11] deals with T1, HMW-MAA (high molecular weight-melanoma …). Nature of the assay: flow cytometry on A375 cells, FITC goat anti-human IgE secondary. On the technique in general: Flow cytometry measures light scatter and fluorescence of single cells or particles in a stream.
Method: as §1, §2
Assay [12] deals with T5, Human CD16A 176 Val (FcγRIIIA176Val), …. Nature of the assay: SPR (Biacore T200) single cycle, His-tagged FcγRIIIA176Val captured on anti-His chip, antibody as analyte, raw sensorgrams.
From the text: as §3, §4
Assay [13] concerns the target T4, Human FcRn (neonatal Fc receptor). Briefly: SPR (Biacore T200), hFcRn amine-coupled to CM5 chip, antibody as analyte 31.25-2000 nM, pH 6.0, raw sensorgrams.
Method: as §5
The target is the same in assay [14]. Nature of the assay: SPR (Biacore T200), hFcRn amine-coupled to CM5 chip, antibody as analyte 31.25-2000 nM, pH 6.0, raw sensorgrams [Continued].
Method: as §5

Residue numbers refer to the chain shown, from its start. Names and notes keep the numbering of the source.

T1 sequence (Q6UVK1 30-2322): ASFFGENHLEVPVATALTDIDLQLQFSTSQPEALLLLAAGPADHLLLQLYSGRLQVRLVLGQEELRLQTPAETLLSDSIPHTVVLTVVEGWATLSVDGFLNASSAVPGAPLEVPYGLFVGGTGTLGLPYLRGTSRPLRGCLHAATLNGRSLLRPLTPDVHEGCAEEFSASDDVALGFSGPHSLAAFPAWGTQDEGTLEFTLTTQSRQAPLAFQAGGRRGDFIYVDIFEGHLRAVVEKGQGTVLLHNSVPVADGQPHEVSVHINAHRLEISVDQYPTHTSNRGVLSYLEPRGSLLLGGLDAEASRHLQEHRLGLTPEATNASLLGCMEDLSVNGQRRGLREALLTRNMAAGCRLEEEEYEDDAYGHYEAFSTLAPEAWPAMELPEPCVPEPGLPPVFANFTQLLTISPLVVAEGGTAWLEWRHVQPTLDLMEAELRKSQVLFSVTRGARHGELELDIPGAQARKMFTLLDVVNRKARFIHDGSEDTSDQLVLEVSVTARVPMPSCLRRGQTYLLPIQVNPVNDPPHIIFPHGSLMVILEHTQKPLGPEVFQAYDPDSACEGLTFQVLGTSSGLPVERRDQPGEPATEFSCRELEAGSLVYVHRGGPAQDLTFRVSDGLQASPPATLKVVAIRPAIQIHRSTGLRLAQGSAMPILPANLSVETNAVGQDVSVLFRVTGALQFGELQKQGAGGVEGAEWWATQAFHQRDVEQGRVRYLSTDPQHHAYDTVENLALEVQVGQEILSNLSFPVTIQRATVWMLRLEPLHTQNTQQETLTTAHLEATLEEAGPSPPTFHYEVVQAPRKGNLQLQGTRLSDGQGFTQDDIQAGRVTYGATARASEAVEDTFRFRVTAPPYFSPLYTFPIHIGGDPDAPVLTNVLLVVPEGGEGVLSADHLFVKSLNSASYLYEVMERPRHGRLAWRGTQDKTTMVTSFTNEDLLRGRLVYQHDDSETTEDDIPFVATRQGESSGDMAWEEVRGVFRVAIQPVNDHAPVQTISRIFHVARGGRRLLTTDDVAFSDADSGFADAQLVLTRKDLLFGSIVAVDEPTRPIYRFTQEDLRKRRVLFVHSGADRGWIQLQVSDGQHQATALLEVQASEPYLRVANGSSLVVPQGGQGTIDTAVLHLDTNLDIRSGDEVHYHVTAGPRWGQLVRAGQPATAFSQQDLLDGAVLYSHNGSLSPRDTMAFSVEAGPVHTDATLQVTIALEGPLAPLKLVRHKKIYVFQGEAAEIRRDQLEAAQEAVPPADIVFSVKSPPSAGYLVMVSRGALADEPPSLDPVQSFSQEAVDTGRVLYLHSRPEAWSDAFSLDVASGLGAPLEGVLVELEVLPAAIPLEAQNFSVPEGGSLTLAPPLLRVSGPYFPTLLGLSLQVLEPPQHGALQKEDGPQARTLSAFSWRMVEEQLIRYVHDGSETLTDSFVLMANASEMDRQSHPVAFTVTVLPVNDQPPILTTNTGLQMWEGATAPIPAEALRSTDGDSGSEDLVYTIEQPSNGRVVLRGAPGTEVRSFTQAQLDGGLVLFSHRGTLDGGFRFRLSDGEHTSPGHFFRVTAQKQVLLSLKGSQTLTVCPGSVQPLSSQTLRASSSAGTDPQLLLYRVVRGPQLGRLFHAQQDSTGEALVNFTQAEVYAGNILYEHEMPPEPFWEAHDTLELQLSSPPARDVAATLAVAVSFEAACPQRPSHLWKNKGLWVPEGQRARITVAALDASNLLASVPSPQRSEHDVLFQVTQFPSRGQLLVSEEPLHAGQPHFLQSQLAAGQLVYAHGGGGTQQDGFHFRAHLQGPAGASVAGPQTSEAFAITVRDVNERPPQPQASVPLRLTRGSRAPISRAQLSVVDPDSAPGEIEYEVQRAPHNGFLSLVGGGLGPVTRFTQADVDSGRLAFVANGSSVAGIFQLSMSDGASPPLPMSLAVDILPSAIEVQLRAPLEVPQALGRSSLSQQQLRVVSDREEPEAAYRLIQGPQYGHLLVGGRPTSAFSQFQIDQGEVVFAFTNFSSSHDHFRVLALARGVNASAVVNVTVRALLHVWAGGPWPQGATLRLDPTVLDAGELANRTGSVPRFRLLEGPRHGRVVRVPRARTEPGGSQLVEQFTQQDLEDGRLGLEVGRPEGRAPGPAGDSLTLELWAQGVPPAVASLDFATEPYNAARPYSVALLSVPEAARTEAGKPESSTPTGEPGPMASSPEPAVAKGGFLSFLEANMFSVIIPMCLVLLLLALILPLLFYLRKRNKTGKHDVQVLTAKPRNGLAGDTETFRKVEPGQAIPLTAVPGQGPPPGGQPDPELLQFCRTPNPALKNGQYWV

B1: HMW-MAA_IGEG (HMW-MAA IgE IgG-Fc) (antibody)
heavy: not shown
light: DIQLTQSPSFLSASVGDRVTITCKASQNVDTNVAWYQQKPGKAPKPLLFSASYRYTGVPSRFSGSGSGTDFTLTISSLQPEDFATYFCQQYNSYPLTFGGGTKVEIKRTVAAPSVFIFPPSDEQLKSGTASVVCLLNNFYPREAKVQWKVDNALQSGNSQESVTEQDSKDSTYSLSSTLTLSKADYEKHKVYACEVTHQGLSSPVTKSFNRGEC
notes: also called CH IGEG
In general, Kd refers to the concentration at which binding is half-saturated. As to B1, the binding result in assay [1] was “binds”. The Kd in assay [2] came out at 0.599 nM; in assay [3], 1.63 nM; in assay [4] it was 1020 nM; in assay [5], 386 nM; in [6] it was 665 nM; in assay [7], 1480 nM.

B2: HMW-MAA_IgE (antibody)
heavy: EVQLVQSGGGLVQPGGSLKLSCAVSGFTFSNYWMNWVRQAPGKGLEWVGEIRLKSNNFGRYYAESVKGRFTISRDDSKNTAYLQMNSLKTEDTAVYYCTSYGNYVGHYFDHWGQGTLVTVSSASTQSPSVFPLTRCCKNIPSNATSVTLGCLATGYFPEPVMVTWDTGSLNGTTMTLPATTLTLSGHYATISLLTVSGAWAKQMFTCRVAHTPSSTDWVDNKTFSVCSRDFTPPTVKILQSSCDGGGHFPPTIQLLCLVSGYTPGTINITWLEDGQVMDVDLSTASTTQEGELASTQSELTLSQKHWLSDRTYTCQVTYQGHTFEDSTKKCADSNPRGVSAYLSRPSPFDLFIRKSPTITCLVVDLAPSKGTVNLTWSRASGKPVNHSTRKEEKQRNGTLTVTSTLPVGTRDWIEGETYQCRVTHPHLPRALMRSTTKTSGPRAAPEVYAFATPEWPGSRDKRTLACLIQNFMPEDISVQWLHNEVQLPDARHSTTQPRKTKGSGFFVFSRLEVTRAEWEQKDEFICRAVHEAASPSQTVQRAVSVNPGK
light: B1 light
notes: also called HMW-MAA IgE-WT; anti-HMW-MAA IgE
On to B2, for which the binding result in [8] is “no binding (tested: 33.33 nM)”; in assay [9], “no binding (tested: 8000 nM)”; in assay [10], “no binding (tested: 8000 nM)”; in [11] it was “binds”; in [12], “no binding (tested: 3e-6 M (top point of FIG. 17D))”; in assay [13], “no binding (tested: 2000 nM)”. In assay [2], this molecule displayed a Kd of 0.508 nM.

B3: HMW-MAA_IGEG-C220S (HMW-MAA IgE-IgG-Fc C220S) (antibody)
heavy: not shown
light: B1 light
On to B3, for which the binding result in [1] is listed as “binds”. Moreover, the Kd in assay [2] came to 0.493 nM; in [3], 1.67 nM; in assay [4], 1050 nM; in assay [5] it was 400 nM; in assay [6], 775 nM; in assay [7], 1870 nM.

B4: HMW-MAA_IGEG-dFcRn (antibody, human IgG1, kappa)
heavy: EVQLVQSGGGLVQPGGSLKLSCAVSGFTFSNYWMNWVRQAPGKGLEWVGEIRLKSNNFGRYYAESVKGRFTISRDDSKNTAYLQMNSLKTEDTAVYYCTSYGNYVGHYFDHWGQGTLVTVSSASTQSPSVFPLTRCCKNIPSNATSVTLGCLATGYFPEPVMVTWDTGSLNGTTMTLPATTLTLSGHYATISLLTVSGAWAKQMFTCRVAHTPSSTDWVDNKTFSVCSRDFTPPTVKILQSSCDGGGHFPPTIQLLCLVSGYTPGTINITWLEDGQVMDVDLSTASTTQEGELASTQSELTLSQKHWLSDRTYTCQVTYQGHTFEDSTKKCADSNPRGVSAYLSRPSPFDLFIRKSPTITCLVVDLAPSKGTVNLTWSRASGKPVNHSTRKEEKQRNGTLTVTSTLPVGTRDWIEGETYQCRVTHPHLPRALMRSTTKTSGPRAAPEVYAFATPEWPGSRDKRTLACLIQNFMPEDISVQWLHNEVQLPDARHSTTQPRKTKGSGFFVFSRLEVTRAEWEQKDEFICRAVHEAASPSQTVQRAVSVNPGKRSEPKSCDKTHTCPPCPAPELLGGPSVFLFPPKPKDTLMASRTPEVTCVVVDVSHEDPEVKFNWYVDGVEVHNAKTKPREEQYNSTYRVVSVLTVLAQDWLNGKEYKCKVSNKALPAPIEKTISKAKGQPREPQVYTLPPSREEMTKNQVSLTCLVKGFYPSDIAVEWESNGQPENNYKTTPPVLDSDGSFFLYSKLTVDKSRWQQGNVFSCSVMHEALHNAYTQKSLSLSPGK
light: B1 light
As for B4, the binding result in assay [14] was “no binding (tested: 2000 nM)”; in assay [1] it was “binds”. In addition, the Kd worked out at 0.556 nM in assay [2]; 2.02 nM in [3]; 535 nM in assay [5]; 960 nM in [6]; 2030 nM in assay [7].

B5: HMW-MAA_IGEG-C220S-dFcRn (antibody)
heavy: B4 heavy with C557S
light: B1 light
On to B5, for which the binding result in assay [14] is reported as “no binding (tested: 2000 nM)”; in assay [1], “binds”. The Kd stood at 0.535 nM in assay [2]; 2.18 nM in assay [3]; 601 nM in [5]; 1160 nM in assay [6]; 2780 nM in assay [7].
